Data reported in US20050256058.

What was measured:
[1] = test system: T1, PhPr-Leu-AOrn-CH═CH-COOEt
T1 sequence: LX

[2] = test system: T2, PhPr-Leu-ALys-CH═CH-COOEt
T2 sequence: LK

[3] = test system: T3, Cbz-Ala-Ala-AAsn-CH═CH-CO-indoline
T3 sequence: AAN

[4] = test system: T4, Cbz-Ala-Ala-AAsn-CH═CH-CON(Bzl)2
T4 sequence: AAN

[5] = test system: T5, Cbz-Ala-Ala-AAsn-CH═CH-CONHCH2CH2Ph
T5 sequence: AAN

[6] = test system: T6, Cbz-Ala-Ala-AAsn-CH═CH-CON(CH3)Bzl
T6 sequence: AAN

[7] = test system: T7, Cbz-Ala-Ala-AAsn-CH═CH-COOEt
T7 sequence: AAN

Substance	kobs/[I] [1]	kobs/[I] [2] [M⁻¹ s⁻¹]	kobs/[I] [3]	kobs/[I] [4]	kobs/[I] [5]	kobs/[I] [6]	kobs/[I] [7] [M⁻¹ s⁻¹]
Cathepsin B	3 M⁻¹ s⁻¹	9	NI	NI	NI	NI	1
Gingipain K			1 M⁻¹ s⁻¹	2 M⁻¹ s⁻¹	NI	1 M⁻¹ s⁻¹	6
Trypsin	NI	17					
